Laboratory results: the emibetuzumab library of Makowski et al. (2022)

B1: VH:VL chains; a variant is named by its letters at X, in order (parent)
chain 1: QVQLVQSGAEVKKPGASVKVSCKASGYTFTDYXMHWVRQAPGQGLEWMGXVNPNXXXTTYNQKFEGRVTMTTDTSTSTAYMELRSLRSDDTAVYYCARXNXLDXWGQGTTVTVSS
chain 2: DIQMTQSPSSLSASVGDRVTITCSVSSSVSSIYLHWYQQKPGKAPKLLIYSTSNLASGVPSRFSGSGSGTDFTLTISSLQPEDFATYYCQVYSGYPLTFGGGTKVEIK

Variants of: B1
Test: yeast display scFab, FACS + sequencing
Summary of the method: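 The non-specific binding call was based on sorted and sequenced yeast displaying a heavy-chain CDR mutant scFab library. Labelling used anti-Myc with biotinylated ovalbumin (260 μg/mL in PBSB, 3 h, room temperature) or soluble membrane proteins (130 μg/mL, 20 min on ice), and FACS collected the top 25% and bottom 10% of binders in two replicates. Positive meant present in ≥3 of 4 pooled positive samples and in no negatives, and negative meant the converse.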

Variant | non-specific binding call
FRGRGSVY | binds
FRGRGSVD | binds
FRGRGSVS | binds
FRGRGSVV | binds
FRGRGSVF | binds
FRGRGAAY | binds
FRGRGAAS | binds
YRGRGAVF | binds
FRGKGSAD | binds
FRGKGSAV | binds
FRGRGSGF | binds
FRGRGSGV | binds
FRGRGAGA | binds
FRGRGAGS | binds
YRGRDDGD | no binding
YRGRDASA | binds
YRGRDASF | no binding
YRGRDASS | no binding
SRGRGAWF | binds
SRGRGAWA | binds
SRGRGAWS | binds
SRGRGAWD | binds
SRGRGAWY | binds
DRGRDDVD | no binding
DRGRDDVV | no binding
DRGRDDVA | no binding

Variant | non-specific binding call
DRGRDDVF | no binding
SRGKGALD | binds
FRGRGASD | binds
FRGRGASV | binds
YRGRASVV | binds
YRGRDYGV | binds
FRGKGAVD | binds
FRGKGAVS | binds
DRGRDDGS | no binding
FRGKGSGA | binds
FRGKGSGV | binds
FRGKGSGF | binds
FRGKGSGD | binds
DRGRDDLV | no binding
VRGKGAVD | binds
YRGKDSGA | binds
YRGKDSGS | binds
YRGRGSSF | binds
FRGRDFGS | binds
YRGRGALS | binds
YRGRGALF | binds
FRGRDDVF | no binding
YRGRDDWF | no binding
YRGKGAAS | binds
YRGKGAAF | binds
YRGRGFVA | binds

Variant | non-specific binding call
YRGRGFVV | binds
YRGRGFVY | binds
YRGRGFVD | binds
FRGRDALY | binds
FRGKGFGV | binds
SRGRGSLS | binds
FRGRGDWV | no binding
SRGKSFGS | binds
YRGRDSVS | binds
FRGRDFLF | binds
FRGRDFLD | binds
SRGRGAVD | binds
SRGRGAVS | binds
DRGRGSAD | binds
FRGRASAD | binds
VRGKGAAD | binds
FRGRDFVS | binds
FRGRDFVA | binds
YRGKSDGS | binds
YRGKGVGD | binds
YRGKGVGV | binds
YRGRAAVS | binds
VRGKDSLD | no binding
ARGRGSAA | binds
FRGRASLS | binds
VRGRGFVV | binds

Variant | non-specific binding call
FRGKGASV | binds
FRGKGASD | binds
FRGKGASS | binds
VRGRDFGV | binds
VRGRGDLA | no binding
FRGRGDGD | binds
FRGRGDGY | binds
FRGRAAVD | binds
YRGKGAVS | binds
YRGKGAVF | binds
VRGKGSLA | binds
VRGRDDGV | no binding
DRGRDSSA | no binding
SRGRDAWA | binds
SRGRGFVA | binds
FRGRDVVV | binds
YRGRGFLV | binds
YRGKGALS | binds
YRGKGALA | binds
VRGRAAGD | no binding
SRGRGAGF | binds
VRGRGALF | binds
VRGRGALS | binds
YRGRGSVY | binds
YRGKGDGS | binds
FRGRDDWA | no binding

Variant | non-specific binding call
SRGRGSVD | binds
ARGRGSSS | binds
FRGRDSSF | binds
DRGRDDAA | no binding
FRGKSAAA | binds
YRGKGSAV | binds
YRGKGSAD | binds
YRGKGSAA | binds
YRGRGSWY | binds
FRGRGFGV | binds
VRGRGFAA | binds
DRGRGDVV | no binding
VRGKGASA | binds
YRGKSSGF | binds
YRGKDAWS | binds
YRGKDAWY | binds
YRGRGFSA | binds
YRGRGFSD | binds
FRGRGDLS | binds
FRGRDFSA | binds
YRGKGYAA | binds
YRGRASGA | binds
SRGRGSSS | binds
